Each block holds one binder with its values, some of them ahead of it. Numbered stars: 1 amine (or outer) side, 2 acyl side, 3 side chain; on linkers, the order of the positions; unused ones are H or OH. Bridge positions count the residues as written; N and C are the ends. Side chains are listed from the residue outwards. Ends that are not written are not given here. * marks the point of attachment. C20 diacid = O=C(O)CCCCCCCCCCCCCCCCCCC(=O)*; γGlu = O=C(O)[C@H](CCC(=O)[*:2])N[*:1]; AEEA = NCCOCCOCC(=O)O
Target: T1, human calcitonin receptor (human, UniProt P30988 25-474)
T1 construct: whole, on cells; also called hCTR; hCT
T1 sequence (looked up): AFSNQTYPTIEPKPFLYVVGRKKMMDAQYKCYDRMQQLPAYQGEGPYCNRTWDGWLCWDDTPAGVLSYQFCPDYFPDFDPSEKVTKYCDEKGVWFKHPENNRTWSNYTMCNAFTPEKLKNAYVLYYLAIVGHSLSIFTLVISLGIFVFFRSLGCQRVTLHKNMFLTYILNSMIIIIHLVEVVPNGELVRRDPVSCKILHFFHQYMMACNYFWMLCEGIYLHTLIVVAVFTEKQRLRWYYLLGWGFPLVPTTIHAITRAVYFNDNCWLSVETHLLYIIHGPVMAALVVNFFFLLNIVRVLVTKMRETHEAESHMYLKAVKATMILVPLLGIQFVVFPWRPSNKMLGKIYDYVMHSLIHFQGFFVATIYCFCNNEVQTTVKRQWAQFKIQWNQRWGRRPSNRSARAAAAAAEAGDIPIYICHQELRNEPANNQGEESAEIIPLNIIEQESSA
Assay: SPA competition with 125I-calcitonin, membranes of BHK hCTR cells (Assay VII)
Method in brief: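 BHK hCTR membranes 35 ng/μL + SPA beads 0.05 mg/well; buffer 50 mM Hepes pH 7.4, 1 mM CaCl2, 5 mM MgCl₂, 0.1% OA, 0.02% Tween20. 120 min, 25° C., shaking. Scintillation count; IC50 by one-site binding competition.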

- IC50: 79.9 nM
B1: N^ε1-[2-[2-[2-[[(4S)-4-carboxy-4-(19-carboxynonadecanoylamino)butanoyl]amino]ethoxy]ethoxy]acetyl]-[Lys14,Arg17,Pro21,Pro27,Pro31]-h-amylin (peptide)
peptide: K([AEEA-γGlu-C20 diacid])CNTATCATQRLAKFLRHSSPNFGAIPSSTPVGSNTY-NH2
modifications: disulfide 2-7; N-terminus assumed
SMILES: CC[C@H](C)[C@H](NC(=O)[C@H](C)NC(=O)CNC(=O)[C@H](Cc1ccccc1)NC(=O)[C@H](CC(N)=O)NC(=O)[C@@H]1CCCN1C(=O)[C@H](CO)NC(=O)[C@H](CO)NC(=O)[C@H](Cc1c[nH]cn1)NC(=O)[C@H](CCCNC(=N)N)NC(=O)[C@H](CC(C)C)NC(=O)[C@H](Cc1ccccc1)NC(=O)[C@H](CCCCN)NC(=O)[C@H](C)NC(=O)[C@H](CC(C)C)NC(=O)[C@H](CCCNC(=N)N)NC(=O)[C@H](CCC(N)=O)NC(=O)[C@@H](NC(=O)[C@H](C)NC(=O)[C@@H]1CSSC[C@H](NC(=O)[C@@H](N)CCCCNC(=O)COCCOCCNC(=O)CC[C@H](NC(=O)CCCCCCCCCCCCCCCCCCC(=O)O)C(=O)O)C(=O)N[C@@H](CC(N)=O)C(=O)N[C@@H]([C@@H](C)O)C(=O)N[C@@H](C)C(=O)N[C@@H]([C@@H](C)O)C(=O)N1)[C@@H](C)O)C(=O)N1CCC[C@H]1C(=O)N[C@@H](CO)C(=O)N[C@@H](CO)C(=O)N[C@H](C(=O)N1CCC[C@H]1C(=O)N[C@H](C(=O)NCC(=O)N[C@@H](CO)C(=O)N[C@@H](CC(N)=O)C(=O)N[C@H](C(=O)N[C@@H](Cc1ccc(O)cc1)C(N)=O)[C@@H](C)O)C(C)C)[C@@H](C)O
notes: also called compound 74

- IC50: 5.38 nM
B2: N^ε1-[2-[2-[2-[[(4S)-4-carboxy-4-(19-carboxynonadecanoylamino)butanoyl]amino]ethoxy]ethoxy]acetyl]-[Ser14,Arg17,Pro21,Pro27,Pro31]-h-amylin (peptide)
peptide: K([AEEA-γGlu-C20 diacid])CNTATCATQRLASFLRHSSPNFGAIPSSTPVGSNTY-NH2
modifications: disulfide 2-7; N-terminus assumed
SMILES: CC[C@H](C)[C@H](NC(=O)[C@H](C)NC(=O)CNC(=O)[C@H](Cc1ccccc1)NC(=O)[C@H](CC(N)=O)NC(=O)[C@@H]1CCCN1C(=O)[C@H](CO)NC(=O)[C@H](CO)NC(=O)[C@H](Cc1c[nH]cn1)NC(=O)[C@H](CCCNC(=N)N)NC(=O)[C@H](CC(C)C)NC(=O)[C@H](Cc1ccccc1)NC(=O)[C@H](CO)NC(=O)[C@H](C)NC(=O)[C@H](CC(C)C)NC(=O)[C@H](CCCNC(=N)N)NC(=O)[C@H](CCC(N)=O)NC(=O)[C@@H](NC(=O)[C@H](C)NC(=O)[C@@H]1CSSC[C@H](NC(=O)[C@@H](N)CCCCNC(=O)COCCOCCNC(=O)CC[C@H](NC(=O)CCCCCCCCCCCCCCCCCCC(=O)O)C(=O)O)C(=O)N[C@@H](CC(N)=O)C(=O)N[C@@H]([C@@H](C)O)C(=O)N[C@@H](C)C(=O)N[C@@H]([C@@H](C)O)C(=O)N1)[C@@H](C)O)C(=O)N1CCC[C@H]1C(=O)N[C@@H](CO)C(=O)N[C@@H](CO)C(=O)N[C@H](C(=O)N1CCC[C@H]1C(=O)N[C@H](C(=O)NCC(=O)N[C@@H](CO)C(=O)N[C@@H](CC(N)=O)C(=O)N[C@H](C(=O)N[C@@H](Cc1ccc(O)cc1)C(N)=O)[C@@H](C)O)C(C)C)[C@@H](C)O
notes: also called compound 73
